# Experimental data from FireProtDB (doi:10.1016/j.bpc.2006.12.004).
# Where “and” joins values, the source holds several entries; their conditions need not be identical. Equal entries are not always repeated.
# Details: pH 8.4, Thermal, Capillary electrophoresis, whole UniProt chain shown; for unfolding free energy: 25 °C
# [1] = Bos taurus, Tris Gly 25 mM 192 mM, NaCl 25 mM
# [2] = Bos taurus, Tris Gly fructose 25 mM 192 mM 1.21 M, NaCl 25 mM
# [3] = Bos taurus, Tris Gly sucrose 25 mM 192 mM 0.15 M, NaCl 25 mM
# [4] = Bos taurus, Tris Gly sucrose 25 mM 192 mM 0.31 M, NaCl 25 mM
# [5] = Bos taurus, Tris Gly sucrose 25 mM 192 mM 0.47 M, NaCl 25 mM
# [6] = Bos taurus, Tris Gly sucrose 25 mM 192 mM 0.63 M, NaCl 25 mM
# [7] = Bos taurus, Tris Gly sucrose 25 mM 192 mM 0.96 M, NaCl 25 mM
# [8] = Aspergillus oryzae (strain ATCC 42149 / RIB 40), Tris Gly 25 mM 192 mM, NaCl 30 mM
# [9] = Aspergillus oryzae (strain ATCC 42149 / RIB 40), Tris Gly fructose 25 mM 192 mM 0.57 M, NaCl 30 mM
# [10] = Aspergillus oryzae (strain ATCC 42149 / RIB 40), Tris Gly fructose 25 mM 192 mM 1.21 M, NaCl 30 mM
# [11] = Aspergillus oryzae (strain ATCC 42149 / RIB 40), Tris Gly fructose 25 mM 192 mM 1.52 M, NaCl 30 mM
# [12] = Aspergillus oryzae (strain ATCC 42149 / RIB 40), Tris Gly sucrose 25 mM 192 mM 0.15 M, NaCl 30 mM
# [13] = Aspergillus oryzae (strain ATCC 42149 / RIB 40), Tris Gly sucrose 25 mM 192 mM 0.31 M, NaCl 30 mM
# [14] = Aspergillus oryzae (strain ATCC 42149 / RIB 40), Tris Gly sucrose 25 mM 192 mM 0.47 M, NaCl 30 mM
# [15] = Aspergillus oryzae (strain ATCC 42149 / RIB 40), Tris Gly sucrose 25 mM 192 mM 0.63 M, NaCl 30 mM
# [16] = Aspergillus oryzae (strain ATCC 42149 / RIB 40), Tris Gly sucrose 25 mM 192 mM 0.80 M, NaCl 30 mM
protein,measurement,setting,value
"Alpha-lactalbumin wild type, P00711 (protein) MMSFVSLLLVGILFHATQAEQLTKCEVFRELKDLKGYGGVSLPEWVCTTFHTSGYDTQAIVQNNDSTEYGLFQINNKIWCKDDQNPHSSNICNISCDKFLDDDLTDDIMCVKKILDKVGINYWLAHKALCSEKLDQWLCEKL",unfolding free energy,[1],3.3 kcal/mol
same,unfolding free energy,"Bos taurus, Tris Gly fructose 25 mM 192 mM 0.57 M, NaCl 25 mM",4.5 kcal/mol
same,unfolding free energy,[2],5.6 kcal/mol
same,unfolding free energy,[3],3.8 kcal/mol
same,unfolding free energy,[4],4.6 kcal/mol
same,unfolding free energy,[5],5.3 kcal/mol
same,unfolding free energy,[6],5.7 kcal/mol
same,unfolding free energy,[7],7 kcal/mol
same,Tm,[1],56.1 °C and 56 °C
same,heat capacity change of unfolding,[1],2.1 kcal/mol/K
same,unfolding enthalpy (van 't Hoff),[1],69 kcal/mol
same,Tm,[2],61.6 °C
same,Tm,"Bos taurus, Tris Gly fructose 25 mM 192 mM 1.83 M, NaCl 25 mM",63.2 °C
same,Tm,[3],56.3 °C
same,Tm,[4],57.5 °C
same,Tm,[5],59 °C
same,Tm,[6],60.5 °C
same,Tm,[7],62.4 °C
"Guanyl-specific ribonuclease T1 wild type, P00651 (protein) MMYSKLLTLTTLLLPTALALPSLVERACDYTCGSNCYSSSDVSTAQAAGYQLHEDGETVGSNSYPHKYNNYEGFDFSVSSPYYEWPILSSGDVYSGGSPGADRVVFNENNQLAGVITHTGASGNNFVECT",unfolding free energy,[8],8.2 kcal/mol
same,unfolding free energy,"Aspergillus oryzae (strain ATCC 42149 / RIB 40), Tris Gly fructose 25 mM 192 mM 0.29 M, NaCl 30 mM",9.1 kcal/mol
same,unfolding free energy,[9],9.5 kcal/mol
same,unfolding free energy,[10],10.5 kcal/mol
same,unfolding free energy,[11],11.2 kcal/mol
same,unfolding free energy,[12],9.1 kcal/mol
same,unfolding free energy,[13],9.5 kcal/mol
same,unfolding free energy,[14],10.2 kcal/mol
same,unfolding free energy,[15],10.6 kcal/mol
same,unfolding free energy,[16],11.1 kcal/mol
same,Tm,[8],62.6 °C and 62.5 °C
same,heat capacity change of unfolding,[8],1.3 kcal/mol/K
same,unfolding enthalpy (van 't Hoff),[8],98 kcal/mol
same,Tm,[9],64.5 °C
same,Tm,"Aspergillus oryzae (strain ATCC 42149 / RIB 40), Tris Gly fructose 25 mM 192 mM 0.89 M, NaCl 30 mM",66 °C
same,Tm,[10],66.5 °C
same,Tm,[11],68 °C
same,Tm,[12],63.6 °C
same,Tm,[13],64.7 °C
same,Tm,[14],65.9 °C
same,Tm,[15],66.5 °C
same,Tm,[16],67.1 °C
